# Experimental data: article PMC10132805 (2023)
# T1: C terminal domain of polyadenylate-binding protein 1 (human, UniProt P11940 544-623)
# T1 chain: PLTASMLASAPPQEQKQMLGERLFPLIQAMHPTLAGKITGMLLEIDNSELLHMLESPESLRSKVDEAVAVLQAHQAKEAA
# T2: programmed cell death 6-interacting protein (ALIX) V domain (human)
# T2 chain: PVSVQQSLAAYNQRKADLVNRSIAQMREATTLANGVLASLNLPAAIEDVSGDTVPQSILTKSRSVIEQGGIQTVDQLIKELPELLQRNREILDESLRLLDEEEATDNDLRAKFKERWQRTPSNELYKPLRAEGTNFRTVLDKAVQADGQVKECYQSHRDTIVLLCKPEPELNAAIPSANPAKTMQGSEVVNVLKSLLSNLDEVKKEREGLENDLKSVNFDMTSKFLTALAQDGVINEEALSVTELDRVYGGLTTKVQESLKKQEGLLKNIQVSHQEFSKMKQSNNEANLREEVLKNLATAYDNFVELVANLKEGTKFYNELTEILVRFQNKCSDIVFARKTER
# B1: N-terminal domain of clathrin (domain or fragment)
# chain: MAQILPIRFQEHLQLQNLGINPANIGFSTLTMESDKFICIREKVGEQAQVVIIDMNDPSNPIRRPISADSAIMNPASKVIALKAGKTLQIFNIEMKSKMKAHTMTDDVTFWKWISLNTVALVTDNAVYHWSMEGESQPVKMFDRHSSLAGCQIINYRTDAKQKWLLLTGISAQQNRVVGAMQLYSVDRKVSQPIEGHAASFAQFKMEGNAEESTLFCFAVRGQAGGKLHIIEVGTPPTGNQPFPKKAVDVFFPPEAQNDFPVAMQISEKHDVVFLITKYGYIHLYDLETGTCIYMNRISGETIFVTAPHEATAGIIGVNRKGQVLSVCVEEENIIPYITNVLQNPDLALRMAVRNNLAGAEELF
# Legend:
# Test in all cases: FP
# SYNRG 664-679 (Human) = target: SYNRG 664-679 (Human)
# [1] = target: NP (ZEBOV) peptide with the 466-YGEY-469 stretch (Zaire ebolavirus, UniProt P18272)
# Nsp4 75-90 (BAV) = target: Nsp4 75-90 (BAV)
# EGFR 992-1007 (Human) = target: EGFR 992-1007 (Human)
# L (OLVV) = target: L (OLVV)
# [2] = target: NP (ZEBOV) peptide with the 340-YQQL-343 sequence (Zaire ebolavirus, UniProt P18272)
# ACP2 407-422 (Human) = target: ACP2 407-422 (Human)
# RdRp 1840-1855 (SVV) = target: RdRp 1840-1855 (SVV)
# AP1B1 626-641 (Human) = target: AP1B1 626-641 (Human)
# ARRB2 367-382 (Human) = target: ARRB2 367-382 (Human)
# [3] = target: Nsp3_(1765-1780) (EEEV) peptide (Eastern equine encephalitis virus)
# VP40 1-20 (SEBOV) = target: VP40 1-20 (SEBOV)
# [4] = target: TSG101 binding peptide from ALIX (PDC6IP) (human, UniProt Q8WUM4)
# [5] = target: T1, C terminal domain of …
# [6] = target: B1
# [7] = target: CEP55 binding peptide from ALIX (human, UniProt Q8WUM4)
# [8] = target: Rabies virus (RABV) protein P peptide (Rabies virus)
# [9] = target: Reston ebolavirus (REBOV) nucleoprotein (NP) peptide (Reston ebolavirus)
# [10] = target: CEP55 binding peptide from TEX1 (human, UniProt Q8IWB6)
# M 26-41 (RABV) = target: M 26-41 (RABV)
# [11] = target: T2, programmed cell death 6-interacting …
binder,measurement,setting,value
GAE domain of the ADP-ribosylation factor-binding protein GGA3 (domain or fragment) SSALPVTAYDKNGFRILFHFAKECPPGRPDVLVVVVSMLNTAPLPVKSIVLQAAVPKSMKVKLQPPSGTELSPFSPIQPPAAITQVMLLANPLKEKVRLRYKLTFALGEQLSTEVGEVDQFP,Kd,SYNRG 664-679 (Human),11 µM
same,Kd,[1],10 µM
Mu homology domain (MHD) of the AP-2 subunit mu (domain or fragment) RNELFLDVLESVNLLMSPQGQVLSAHVSGRVVMKSYLSGMPECKFGMNDKIVIEKQGKGTADETSKSGKQSIAIDDCTFHQCVRLSKFDSERSISFIPPDGEFELMRYRTTKDIILPFRVIPLVREVGRTKLEVKVVIKSNFKPSLLAQKIEVRIPTPLNTSGVQVICMKGKAKYKASENAIVWKIKRMAGMKESQISAEIELLPTNDKKKWARPPISMNFEVPFAPSGLKVRYLKVFEPKLNYSDHDVIKWVRYIGRSGIYETR,Kd,Nsp4 75-90 (BAV),16 µM
same,Kd,EGFR 992-1007 (Human),2.4 µM
same,Kd,L (OLVV),11 µM
same,Kd,[2],9.5 µM
same,Kd,ACP2 407-422 (Human),220 µM
B1,Kd,RdRp 1840-1855 (SVV),~800 µM
same,Kd,AP1B1 626-641 (Human),280 µM
same,Kd,ARRB2 367-382 (Human),39 µM
same,Kd,[3],27 µM
tumor susceptibility gene 101 protein UEV domain (domain or fragment) AVSESQLKKMVSKYKYRDLTVRETVNVITLYKDLKPVLDSYVFNDGSSRELMNLTGTIPVPYRGNTYNIPICLWLLDTYPYNPPICFVKPTSSMTIKTGKHVDANGKIYLPYLHEWKHPQSDLLGLIQVMIVVFGDEPPVFSRP,Kd,VP40 1-20 (SEBOV),12 µM
same,Kd,[4],150 µM
SAGLNPAAVPFVPKNQ [P/V/C_(183-198) (HeV) peptide],Kd,[5],2 µM
KSNLNPNAKEFVPGVK [PABP-interacting protein 2 peptide PAIP2_(108-123)],Kd,[5],0.16 µM
VDGAADLIDFSVPTDE [mu-NS_(705-720) (MRV1) peptide],Kd,[6],32 µM
MSKLSVNAPEFYPSGY [PABP-interacting protein 1 peptide PAIP1_(125-140)],Kd,[5],1.6 µM
centrosomal protein of 55 kDa EABR domain (domain or fragment) FNSSINNIHEMEIQLKDALEKNQQWLVYDQQREVYVKGLLAKIFELEKKTETAAH,Kd,[7],~0.3 µM
same,Kd,[8],22 µM
same,Kd,[9],2.2 µM
same,Kd,[10],~0.3 µM
NSMLNPNAVPFQPSPQ [N_(2-17) (BeV) peptide],Kd,[5],2.7 µM
HPLLNPSALEFNPSQT [N_(351-366) (HCoV 229E) peptide],Kd,[5],23 µM
VHS domain of the ADP-ribosylation factor-binding protein GGA3 (domain or fragment) ATNPSNRQEDWEYIIGFCDQINKELEGPQIAVRLLAHKIQSPQEWEALQALTVLEACMKNCGRRFHNEVGKFRFLNELIKVVSPKYLGDRVSEKVKTKVIELLYSWTMALPEEAKIKDAYHMLKRQGIVQS,Kd,M 26-41 (RABV),150 µM
VDEEKGLYPNLKLTEPTAPMIHNYM [Nsp4_(118-142) (BAV) peptide],Kd,[11],160 µM
TTGLNPTAVPFTLRNL [P/V/C_(183-198) (NiV) peptide],Kd,[5],15 µM
